Assay: yeast display, Sf9 membrane polyspecificity reagent, FACS + sequencing; frameworks hold sequencing errors
Summary of the method: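 Sorting gates, low and high (top ~1%), were placed on anti-HA fluorescence to track expression and on streptavidin fluorescence to track reagent binding. A clone's polyreactivity label is taken from the gate it came out of. The reagent was 10% biotinylated, detergent-solubilized Sf9 membrane, applied for 1 hour at 4 °C to galactose-induced yeast display cells.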

Q: Which “polyreactivity (PSR sort gate)” value does the source give for “QVQLQESGGGLVQAGGSLRLSCAASGSIYDDTYMGWYRQAPGKERELVATIDSGSTTNYADSVKGRITISRDNAKYTVYLQMNSLKPEDTAVYYCAAADSHIDYFDYWGQGTQVTVSS” here?
A: low polyreactivity

Q: Which “polyreactivity (PSR sort gate)” value does the source give for “QVQLQESGGGLVQAGGSLRLSCAASGSSSILHSMGWYRQAPRKERELVAGINWGATTYYADSVKGRLTTSRDYAKNTVYLQMNSLKPEDTAVYYCAVPTYYPYPLLYWGQGTQVTVSS” here?
A: low polyreactivity

Q: Which “polyreactivity (PSR sort gate)” value does the source give for “QVQLQESGGGLVQAGGSLRLSCAASGTIFRFRYMGWHRQAPGKERELVAGINGGTTTYYADSVIGRFTISRDNAINTVYLQMNSLKPDDTAVYNCAAGASRLTYYDYWGQGTQVTVSS” here?
A: low polyreactivity

Q: With “QVQLQESGGGLVQAGGSLRLSCAASGTIFTARFMGWSRQAPGKERDLVATITDGGNTNHADSVKGRFTISRDNAKNTVYLQMNSLKPEDAAVNYSAAGEVDNDTLLYWGQGSQVTVSS” as the sequence, how does the “polyreactivity (PSR sort gate)” value read?
A: low polyreactivity

Q: For “QVQLQESGGGLVQAGGSLRLSCAASGTIFTARIMGWYRQAPGKERELVATITDGGNTNHADSVKCRFTISRDNAKITVYLQMNSLKPEDAAVYYCAAGEVDNDTLLYWGQGSQVTVSS”, which “polyreactivity (PSR sort gate)” value is on record?
A: low polyreactivity

Q: With “QVQLQESGGGLVQAGGSLRLSCAASGTIFWLWAMGWYCQAPGKERELVASISSGGTTYHADSVKGRFTISRDNAKNTVYLQMNSLKPEDTAVYYSAAFYVATSKLGFWGQGSQVTVSS” as the sequence, how does the “polyreactivity (PSR sort gate)” value read?
A: low polyreactivity

Q: Which “polyreactivity (PSR sort gate)” value does the source give for “QVQLQESGGGLVQAGGSLRLSCAASGTISDSGLMGWYRQAPGKERELVAGISSGGITNYADSVKGRFTISRDNAKNKVYLQMNSLKPEDTAVYWGQGTQVTVSS” here?
A: low polyreactivity

Q: For “QVQLQESGGGLVQAGGSLRLSCAASGTISEDDWSGWYRQAPGKERELVAAIGLGSNTNYADSLKGRFPISRDNAKNTVYLQMNSLKPEDTAVYYSAVSVWQYSDNVYRGQGTQVTVSS”, which “polyreactivity (PSR sort gate)” value is on record?
A: low polyreactivity

Q: With “QVQLQESGGGLVQAGGSLRLSCAASGTITFAAYMGWYRQAPGKEREYVASIGYGATTYYADSEKGRFTISRDNANNTVYLPMNSLKPGDTAVYYCAVDRSPQYRYLYYWGQGTQVTVCS” as the sequence, how does the “polyreactivity (PSR sort gate)” value read?
A: high polyreactivity

Q: With “QVQLQESGGGLVQAGGSLRLSCAASGTITQEDWMGWYRQAPGKEREFVAAIGLGSNTNYADSLKGRFTISRDNAKNTVYLQMNSLKPEDTGVYYCAVSVWQYSDHVYRGQGTQVTVSS” as the sequence, how does the “polyreactivity (PSR sort gate)” value read?
A: low polyreactivity

Q: With “QVQLQESGGGLVQAGGSLRLSCAASGTITVLYKMGWFRQAPGKEREFVASINYGTSTYYADSVKGRFTVSRDSAKNTVYLQMNSRKPEDTAVYYCAAAYRWQDVYRYWGQGTQVTVSS” as the sequence, how does the “polyreactivity (PSR sort gate)” value read?
A: low polyreactivity

Q: With “QVQLQESGGGLVQAGGSLRLSCAASGYISFSGYMGRYRQAPGKEREFVDSITPGRSTYYADSVKGRFTISRDNAENTVYLQMNSLKPEDTAVYYCAADDSRTEQHAYWGQGTQVTVSS” as the sequence, how does the “polyreactivity (PSR sort gate)” value read?
A: high polyreactivity

Q: With “QVQLQESGGGLVQAGGSLRLSCAASGYISSWYPMGWYRQAPGKEREFVATIAPGATTYYADSVKGRFTISRDYAKNTVYLQMNSLKPEDTAVYFCAAGPENNDFYSYWGQGTQVTVSS” as the sequence, how does the “polyreactivity (PSR sort gate)” value read?
A: low polyreactivity

Q: Which “polyreactivity (PSR sort gate)” value does the source give for “QVQLQESGGGLVQAGGSLRLSCAASGYISTFSSEMGWYRQAPGKERELVASIAPGCTTSYADSVKGRFTISRDNAKNTVYLQMHRLKPEDTAVYYCAVDYTVPASFGYWGQGTQVTVSS” here?
A: high polyreactivity

Q: Which “polyreactivity (PSR sort gate)” value does the source give for “QVQLQESGGGLVQAGGSLRLSCAASGYISYWIYMGCYRQAPGKERELLPVLITVLVPIMRIACKAGFTISRDNAKNSVYLQMNSQKPEDTALYYCAVSWYNGDYFSYWGQGTQVTVSS” here?
A: low polyreactivity

Q: With “QVQLQESGGGLVQAGGSLRLSCAASGYITYFVGMGWYRQPPGKEREFVASIADGSNTYYADSVKGRFTISRDNAKNTVYLQRNSLKPEDTAVYYCAVVDSWTYRFDYWGQGTQVTVSS” as the sequence, how does the “polyreactivity (PSR sort gate)” value read?
A: high polyreactivity

Q: Which “polyreactivity (PSR sort gate)” value does the source give for “QVQLQESGGGLVQAGGSLRLSCAASVTISDSGLMGWYRQAPGKERELVAGISSGGITNYADSVKGRFTISRDNAKNTVYLQMNSLKPEVTAVYWGQGTKVTVSS” here?
A: low polyreactivity

Q: For “QVQLQESGGGLVQAGGSLRLSCAATGSIFYRLKMGWHRQAPGKERELVATIDPGSNTYYADSVKGSFTISRDNAKNTVYPQMYSLKPEDTAVYYCAVSAHWTIHYYYWGQGTQVTVSS”, which “polyreactivity (PSR sort gate)” value is on record?
A: high polyreactivity

Q: For “QVQLQESGGGLVQAGGSLRLSCASSGTISQEDWKGWYRQAPGKEREFVAAIGLGSNTNYADSLKGRFTISRDNAKNTVYLQMNSLKPEDTAVYYCAVSVWQYSDHVYRGQGTQVTVSS”, which “polyreactivity (PSR sort gate)” value is on record?
A: low polyreactivity

Q: For “QVQLQESGGGLVQAGGSLRLTCAASGTISQEDWLGWYLQAPGKEREFVAAIGLGSNTNYADSLKGRFTISRDNAQNTVYLQMNSLKAEYTAVYYCAVSVWQYSDHVYRGQGTQVTVSS”, which “polyreactivity (PSR sort gate)” value is on record?
A: low polyreactivity

Q: Which “polyreactivity (PSR sort gate)” value does the source give for “QVQLQESGGGLVQAGGSLRLTCAASRNISGSADLGWYHPAPGKEREFVASITSGGTTYYADSVKGRVTISRDNAKNTVYLQMNSLKPEDTAVYYCAVGDPADAEFGYWGQGSQVTVSS” here?
A: low polyreactivity

Q: With “QVQLQESGGGLVQAGGSLRMRCAASRNISGSSDLGWYHQAPGKEREFVASITSGGTTYYADSVKGRFTISRDNAKNTVYLQMNSLKPEDTAVYYCAVGDPADAEFGYWGQGTQVTVSS” as the sequence, how does the “polyreactivity (PSR sort gate)” value read?
A: low polyreactivity

Q: For “QVQLQESGGGLVQAGGSLRMSCAASGNIFDADIMGWYRQAPGKERELVASITDGRRTNYADSVKGRYTISRDSEKNTVYMQMNSLIPVDTAVYYCADIAYPVVPTYFDYDSDYFHWGQGTQVTVSS”, which “polyreactivity (PSR sort gate)” value is on record?
A: high polyreactivity

Q: With “QVQLQESGGGLVQAGGSLRPSCAASGNIFVPFKMGWYRLAPGKEREHVASINRGSTTNYADSVKGRFTISRDNAKNTVYLQMISLKPEDTAVYYCAAIAYPDIPTYLDYDSDYFYWDQGTQVTVSS” as the sequence, how does the “polyreactivity (PSR sort gate)” value read?
A: high polyreactivity

Q: With “QVQLQESGGGLVQAGGSLRPSCAASGSISDGVPKGWYRQAPGEERELVATTVLGATTNYADSVKGRFTISRGNAKNTVYLQMNSLKPEETAVYYCAAPLRYDKGFSYWGQGTQVTVSS” as the sequence, how does the “polyreactivity (PSR sort gate)” value read?
A: low polyreactivity

Q: For “QVQLQESGGGLVQAGGSLRQSCAASGSNSPWSYMGRSRQAPGKEREFVASINAGTNTYYADSAKGRITISRDNATNTVYLQMNSLKPEDTAAYYCAARYWNDYYFPYWGQGTQVTVSS”, which “polyreactivity (PSR sort gate)” value is on record?
A: low polyreactivity

Q: Which “polyreactivity (PSR sort gate)” value does the source give for “QVQLQESGGGLVQAGGSLRQSYAASGYIFPSLAMGWYRQAPGKEREFVAAIGRGSTNNYADSVKGRFTISRDNAKNTAYQQMNSLNPEDTAVYYCAAAASPLTRHLYWGQGTQVTVSS” here?
A: low polyreactivity

Q: With “QVQLQESGGGLVQAGGSQRLSCAASGYIFYFQYMGWYRQAPGKEREFVAAISDGANTNYADSVKGRFTISRDNAKNTEYLQMNSLKPEDTAVYFCAVYADENYYFIYWGQGTQVTVSS” as the sequence, how does the “polyreactivity (PSR sort gate)” value read?
A: low polyreactivity

Q: For “QVQLQESGGGLVQAGGSQRLSCASSGYIFYFQYMGWYRQAPGKEREFVAAISDGANTNYADSVKGRFTISRDNAKNTEYLQMNSLKPEDTAVYYCNADQYYWYEYDYWGQGTQVTVSS”, which “polyreactivity (PSR sort gate)” value is on record?
A: low polyreactivity

Q: For “QVQLQESGGGLVQAGGSRRLSCAASGSISNLIAKCWYRQAQGKEREFVAAIGPGANTNYADSVKGRFTISRDNAKNPVYLQMNSRTPEDTAVYYCAVDYYGEAVYHYWGQGTQVTVSS”, which “polyreactivity (PSR sort gate)” value is on record?
A: high polyreactivity

Q: With “QVQLQESGGGLVQAGGTLRLSCAASGSFSADEDMGWYRQAQGKEREFVAGISVGGNTNYADSVKGRFTISRENAKNTVYLQMNILKPEDTAVYYCNARLLYLGSGFYYWGQGTQVTVSS” as the sequence, how does the “polyreactivity (PSR sort gate)” value read?
A: high polyreactivity

Q: For “QVQLQESGGGLVQARGSLRLSCAASGTILYSLGMGWYRQAPGKRREFVASITWGTTTNYAESVKGRFTISRDNAKNTVYPQMNSLKPEDTAVYYCAAPPFGDSSYHYWRQGTQVTVSS”, which “polyreactivity (PSR sort gate)” value is on record?
A: low polyreactivity

Q: With “QVQLQESGGGLVQARGSLRLSCAASGTISQEDCMGWYRQAPGKVREFVAAIGLGSNTNYADRLKGRFTISRDNAKNTVYLQMNSLKTEDTAVYYCAVSVWQYSDHVYRGQGTQVTVSS” as the sequence, how does the “polyreactivity (PSR sort gate)” value read?
A: low polyreactivity

Q: For “QVQLQESGGGLVQASGSLRLSCAASGNIFPDYFMGWYRLAPGKEREFVANITGGSTTNYADSVKGRFTISRDNAKNTLYLQMNSLKPEDTAVYYCAVNFGTVVLYLYWGQGTQVTVSI”, which “polyreactivity (PSR sort gate)” value is on record?
A: high polyreactivity

Q: Which “polyreactivity (PSR sort gate)” value does the source give for “QVQLQESGGGLVQEGGSLRLSCAASGNISPPADMGWYRPAPGKERELVASIGTGGTTNYADSVKGRFTISRDNAKNTVYLQMNSLKPEDTAVYYCNVRYRSAGSRYGYWGQGTQVTVSS” here?
A: low polyreactivity

Q: With “QVQLQESGGGLVQEGGSLRLSCAASGNISPPADMGWYRQAPGKERELVASIGTGGTTNYADSVKGRFTISRDNAKNTVYLQMNSLKPDDTAVYYCAAVRYEYNPYDYWGQGTQVTVRS” as the sequence, how does the “polyreactivity (PSR sort gate)” value read?
A: low polyreactivity

Q: Which “polyreactivity (PSR sort gate)” value does the source give for “QVQLQESGGGLVQEGGSLRLSCAASGSIFKVVHMGLYRQAPAKEREFVATIGEGGNTYYADSVKGRFTISRDNAKNTVYLQMNSLKPVDTAVYFYAVVLGTSYRYTYWGQGTQVTVSS” here?
A: low polyreactivity

Q: Which “polyreactivity (PSR sort gate)” value does the source give for “QVQLQESGGGLVQEGGSLRLSCSASGNISPPADMGWSRQAPGKERELVASIGTGGTTNYADSVKGRFTISRDNAKNTVYLQMNSLKPDDTAVYYCAAGRYEYNPYDYWGQGTQVTVSS” here?
A: low polyreactivity

Q: With “QVQLQESGGGLVQGGGSLRLSCAASGSNYRSWYMGWYRQAPGKERELVASITEGATTNYAYSVKAALPLAAITRNTVYLQMDSMKPEDTAVYYRAASFGSTYDLVYWGQGTQVTVSS” as the sequence, how does the “polyreactivity (PSR sort gate)” value read?
A: high polyreactivity

Q: Which “polyreactivity (PSR sort gate)” value does the source give for “QVQLQESGGGLVQVGGSQRLSCAASGNIFYNYAMGWYRHAQGKEREFDATINHGTSINYADSVKGRFTISRDNAKNTVYLQMNSLKPEDTAVYYCAARVVRYGYKYYYWGQGTQVTVSS” here?
A: low polyreactivity

Q: For “QVQLQESGGGLVRAGGSLRLSCAASGYISTSIAIGWYRQAPGKERELVASFGAGAITNYADSVKGFTISRDNGKKTVYLQMNSLKPVDTALYYCAVYHGDRGYYSYWGQGTQVTVSS”, which “polyreactivity (PSR sort gate)” value is on record?
A: low polyreactivity
